{
  "source": "patent US6277383A",
  "about": "“Ryegrass pollen allergen” (University of Melbourne, priority 1995, dated 2001)",
  "molecules": {"B1": {"name": "Clone 12: 1.2 kb cDNA clone lambda-12R; its expressed protein is designated Lol p Ib.1 (protein)", "chain": "MAVQKYTVALFLAVALVAGPAASYAADAGYTPAAAATPATPAATPAAAGGKATTDEQKLLEDVNAGFKAAVAAAANAPPADKFKIFEAAFSESSKGLLATSAAKAPGLIPKLDTAYDVAYKAAEGATPEAKYDAFVTALTEALRVIAGALEVHAVKPATEEVPAAKIPTGELQIVDKIDAAFKIAATAANAAPTNDKFTVFESAFNKALNECTGGAYETYKFIPSLEAAVKQAYAATVAAAPEVKYAVFEAALTKAITAMTQAQKAGKPAAAAATGAATVATGAATAAAGAATAAAGGYKA"}},
  "test_system": "MAbs 3.2, 12.3, 21.3 and 40.1",
  "experiment": "Recognition of cloned allergen 12R by MAbs (FIG. 1a)",
  "assay_type": "binding",
  "settings": "MAbs 3.2, 12.3, 21.3, 40.1",
  "description": "Poly (A+) mRNA isolated from mature rye grass pollen by the phenol method (Herrin and Michaels, (1984) Plant Mol. Biol. Rep., 2:24-28) was used to construct a cDNA library in the vector lambda-gt 11. The library was then screened with antibody probes to detect sequences expressing Group I proteins. E. coli Y1090 transfected with 3×10^4 recombinant phages were plated and incubated at 42° C. for 3 h. The plates were overlaid with a dry 132 mm nitrocellulose (NC) filter previously soaked in 10 mm IPTG and transferred to 37° C. After incubation for 3 h the filters were carefully peeled off and incubated in 20 ml per filter of MTBS (10% w/v non-fat milk powder, 50 mm Tris-HCI, pH 7.6, 150 mM Nacl) for 30 min. at room temperature. A second set of NC filters was placed on phage plates and after incubating for 3 h were treated as above. Both sets of NC filters were tested for binding of MAb 40.1 to plaques by the method described in Huynh et al. (1985) In: DNA Cloning, a practical approach, Glover, D. M. (ed.) Vol. 1, pp. 49-78, IRL Press, Oxford, England. The antibody positive plaques were picked, purified, then replated and tested for binding to probes. The positive clones were plaque-purified and tested for IgE binding using sera from grass pollen-allergic subjects. Eighteen clones were selected as encoding proteins recognized by both Lol p I-specific MAbs and IgE antibodies (Table 1). […]",
  "data": [
    {"molecule": "B1", "values": [
      {"measurement": "Recognition by all four MAbs used in this study", "value": "recognized"}
    ]}
  ]
}
